Experiment [1] has as its target T1, GST fusion form of full-length human cIAP1 (human, UniProt Q13490 1-618).
T1 construct: Full-length cIAP1 fused to GST, expressed in E. coli BL21(DE3); also called GST-cIAP1; full-length cIAP1 (GST-fused); not shown: N-terminal glutathione S-transferase of pGEX-4T-2 with thrombin cleavage site
Nature of the experiment: GST pulldown on Glutathione Sepharose beads, Western blot (anti-GST, anti-Penta-His). As to the method: To examine whether the differential in catalytic efficiency between Omi WT and OmiΔ8 was due to different binding affinities to IAPs, a GST-based pulldown assay was used to monitor the IAP binding affinities of Omi WT and OmiΔ8. Full-length cIAP1 (50 nM) was incubated with 100 nM of Omi WT and Omi mutants for 20 minutes at 4° C. in 50 μl of PBST. The samples were then incubated with 20 μl of Glutathione Sepharose beads (Amersham Biosciences, Piscataway, N.J.) for 30 minutes at 4° C. The beads were precipitated by centrifugation and washed briefly with 1.4 ml×3 of PBST. The proteins bound to the beads and left in the supernatant were separately mixed with SDS sample loading buffer and resolved by SDS-PAGE, then transferred to a nitrocellulose filter. The upper part of the filter was probed with an antibody against GST and the lower part with an antibody against Penta-His.
(In general: A western blot detects proteins with antibodies after separation by electrophoresis.)

Experiment [2] deals with T1, GST fusion form of full-length human …. Nature of the experiment: cell-based or functional assay.
Experiment [3] has as its target T2, Omi WT (wild-type mature Omi/HtrA2, C-terminal hexa-His tagged, recombinant from E. coli) (Homo sapiens (humans), UniProt O43464 134-458).
T2 construct: Any N-terminal Met from Nde I cloning is not discussed for the bacterial protein; also called wild-type Omi; PRSS25
T2 sequence: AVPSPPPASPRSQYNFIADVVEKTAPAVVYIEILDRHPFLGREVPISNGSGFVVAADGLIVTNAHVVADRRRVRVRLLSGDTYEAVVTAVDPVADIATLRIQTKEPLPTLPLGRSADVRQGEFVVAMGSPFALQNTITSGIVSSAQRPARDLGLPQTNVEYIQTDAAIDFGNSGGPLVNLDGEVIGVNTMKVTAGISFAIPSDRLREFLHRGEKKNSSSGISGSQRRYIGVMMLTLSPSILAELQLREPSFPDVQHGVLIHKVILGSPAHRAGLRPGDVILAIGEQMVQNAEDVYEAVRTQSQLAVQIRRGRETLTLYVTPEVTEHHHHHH
Nature of the experiment: immunoprecipitation assay (data not shown).

T1 sequence (Q13490 whole entry, the tested form may be a part): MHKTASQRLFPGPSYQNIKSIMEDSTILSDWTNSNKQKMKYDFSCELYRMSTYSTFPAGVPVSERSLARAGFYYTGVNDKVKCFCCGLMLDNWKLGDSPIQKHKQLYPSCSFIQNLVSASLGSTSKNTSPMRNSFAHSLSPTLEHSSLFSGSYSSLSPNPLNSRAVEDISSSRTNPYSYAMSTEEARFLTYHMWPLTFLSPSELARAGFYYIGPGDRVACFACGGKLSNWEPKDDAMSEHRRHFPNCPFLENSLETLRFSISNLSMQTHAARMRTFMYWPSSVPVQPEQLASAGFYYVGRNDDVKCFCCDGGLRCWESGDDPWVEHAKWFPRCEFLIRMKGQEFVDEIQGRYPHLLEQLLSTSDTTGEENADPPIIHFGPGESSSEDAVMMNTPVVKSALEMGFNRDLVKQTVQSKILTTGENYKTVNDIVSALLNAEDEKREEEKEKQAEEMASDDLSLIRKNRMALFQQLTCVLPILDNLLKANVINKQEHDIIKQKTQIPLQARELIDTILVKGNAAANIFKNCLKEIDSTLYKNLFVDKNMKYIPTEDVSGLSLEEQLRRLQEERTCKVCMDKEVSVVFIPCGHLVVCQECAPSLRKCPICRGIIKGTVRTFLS

B1: OmiΔ8 (Omi without the AVPS tetrapeptide, C-terminal hexa-His tagged) (enzyme)
chain: PPPASPRSQYNFIADVVEKTAPAVVYIEILDRHPFLGREVPISNGSGFVVAADGLIVTNAHVVADRRRVRVRLLSGDTYEAVVTAVDPVADIATLRIQTKEPLPTLPLGRSADVRQGEFVVAMGSPFALQNTITSGIVSSAQRPARDLGLPQTNVEYIQTDAAIDFGNSGGPLVNLDGEVIGVNTMKVTAGISFAIPSDRLREFLHRGEKKNSSSGISGSQRRYIGVMMLTLSPSILAELQLREPSFPDVQHGVLIHKVILGSPAHRAGLRPGDVILAIGEQMVQNAEDVYEAVRTQSQLAVQIRRGRETLTLYVTPEVTEHHHHHH
notes: The name Δ8 may mean that 8 residues were deleted in the tested construct; also called Omi?8; OmiΔAVPS
Regarding B1, the binding result in experiment [1] was “no binding (tested: 100 nM Omi mutant with 50 nM cIAP1)”.

B2: Smac (purified recombinant) (other, UniProt Q9NR28 56-239, looked up)
chain: AVPIAQKSEPHSLSSEALMRRAVSLVTDSTSTFLSQTTYALIEAITEYTKAVYTLTSLYRQYTSLLGKMNSEEEDEVWQVIIGARAEMTSKHQEYLKLETTWMTAVGLSEMAAEAAYQTGADQASITARNHIQLVKLQVEEVHQLSRKAETKLAEAQIEELRQKTQEEGEERAESEQEAYLRED
notes: The construct is not described; also called Smac/DIABLO
Regarding B2, the “relief of cIAP1 inhibition of caspase activity in HeLa extracts” value in experiment [2] was 200 nM. For the same molecule, the binding result in experiment [3] is given as “no binding”.

The values above are taken from US20040171105A1 (published 2004).
